This assay addresses Bovine Serum Albumin (BSA) (bovine, UniProt P02769 25-607). Nature of the assay: ELISA, BSA coated on the plate, rsCD6 added at several concentrations, detected with biotin-labeled anti-CD6 mAb (MAE) and streptavidin-HRP. For orientation: In an ELISA, binding on a coated surface is turned into a signal by an enzyme label.

Sequence of Bovine Serum Albumin (BSA) (P02769 25-607 limits assumed): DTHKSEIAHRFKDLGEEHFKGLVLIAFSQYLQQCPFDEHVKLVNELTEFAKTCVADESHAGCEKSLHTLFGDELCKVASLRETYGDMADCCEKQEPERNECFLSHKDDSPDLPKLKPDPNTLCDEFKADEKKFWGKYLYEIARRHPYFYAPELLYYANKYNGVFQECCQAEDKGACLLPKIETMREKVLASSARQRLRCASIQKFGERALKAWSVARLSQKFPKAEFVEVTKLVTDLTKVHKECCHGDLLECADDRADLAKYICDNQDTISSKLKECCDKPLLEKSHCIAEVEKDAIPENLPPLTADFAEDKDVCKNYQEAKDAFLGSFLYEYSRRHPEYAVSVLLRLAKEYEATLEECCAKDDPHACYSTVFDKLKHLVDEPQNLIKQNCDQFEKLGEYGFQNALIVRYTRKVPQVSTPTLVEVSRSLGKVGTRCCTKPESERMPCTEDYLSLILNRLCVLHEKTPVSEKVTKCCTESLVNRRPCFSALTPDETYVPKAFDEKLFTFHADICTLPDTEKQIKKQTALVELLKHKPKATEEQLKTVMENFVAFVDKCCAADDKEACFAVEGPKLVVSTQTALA
Description: Twelve μg of LPS purified from E. coli O111:B4 (Sigma), Zymosan from Saccharomyces cerevisae (Sigma), peptidoglycan purified from S. aureus (Fluka) or Bovine Serum Albumin (BSA), were used to coat 96-well microtiter plates (Nunc, Roskilde, Denmark) in PBS, overnight at 4° C. Non-specific binding to the wells was prevented by the addition of PBS containing 1% BSA for 1 h at room temperature. Several concentrations of rsCD6 were then added to the wells and incubated for 3 h at room temperature. Bound protein was detected by the addition of a 1:200 dilution of biotin-labeled mAb anti-CD6 (MAE) for 1 h at RT, followed by a 1:1000 dilution of HRP-labeled streptavidin (DAKO, Glostrup, Denmark), which was incubated for 30 min at RT. Between each incubation step, unbound protein or HRP-streptavidin was washed off three times with PBS plus 0.01% Tween-20. Color was developed by adding 3,3′,5,5′-tetramethylbenzidine liquid substrate (Sigma), and the absorbance was read at 405 nm. The assay was repeated three times with similar results.

B1: rsCD6, recombinant soluble ectodomain of human CD6 (amino acids D25 to E384, immature protein numbering) (receptor, UniProt P30203 25-384, looked up)
chain: DQLNTSSAESELWEPGERLPVRLTNGSSSCSGTVEVRLEASWEPACGALWDSRAAEAVCRALGCGGAEAASQLAPPTPELPPPPAAGNTSVAANATLAGAPALLCSGAEWRLCEVVEHACRSDGRRARVTCAENRALRLVDGGGACAGRVEMLEHGEWGSVCDDTWDLEDAHVVCRQLGCGWAVQALPGLHFTPGRGPIHRDQVNCSGAEAYLWDCPGLPGQHYCGHKEDAGAVCSEHQSWRLTGGADRCEGQVEVHFRGVWNTVCDSEWYPSEAKVLCQSLGCGTAVERPKGLPHSLSGRMYYSCNGEELTLSNCSWRFNNSNLCSQSLAARVLCSASRSLHNLSTPEVPASVQTVTIE
notes: range 25-384; Used as unpurified serum-free culture supernatant to coat wells in the gp120 ELISA; also called recombinant soluble CD6; rCD6
In the case of B1, the binding result was “no binding”.

These data come from patent US20100105622A1 (UNIVERSIDAD DE BARCELONA, published 2010).
